Earlier results on 2 substances are cited in publication PMC6690345.

This data set has as its target integrin αIIbβ3 (Homo sapiens) (UniProt P08514). Put plainly: SPR. A general note: Surface plasmon resonance follows binding to a sensor surface in real time, without labels.

One may read the Kd as a measure of binding affinity in units of concentration. Regarding ERp5 (from UniProt Q15084), the dissociation constant Kd was 21 µM.

Turning to PDI (from UniProt P07237), the Kd was 1 µM.
